Experimental findings from US11903969 are described below.

The target of the experiment is CD19 on CD19+ cells (Nalm6-GL, Raji, donor B cells) (UniProt P15391). The experiment in a line: cell-based or functional assay.
UniProt P15391, sequence (P15391 20-556 limits assumed): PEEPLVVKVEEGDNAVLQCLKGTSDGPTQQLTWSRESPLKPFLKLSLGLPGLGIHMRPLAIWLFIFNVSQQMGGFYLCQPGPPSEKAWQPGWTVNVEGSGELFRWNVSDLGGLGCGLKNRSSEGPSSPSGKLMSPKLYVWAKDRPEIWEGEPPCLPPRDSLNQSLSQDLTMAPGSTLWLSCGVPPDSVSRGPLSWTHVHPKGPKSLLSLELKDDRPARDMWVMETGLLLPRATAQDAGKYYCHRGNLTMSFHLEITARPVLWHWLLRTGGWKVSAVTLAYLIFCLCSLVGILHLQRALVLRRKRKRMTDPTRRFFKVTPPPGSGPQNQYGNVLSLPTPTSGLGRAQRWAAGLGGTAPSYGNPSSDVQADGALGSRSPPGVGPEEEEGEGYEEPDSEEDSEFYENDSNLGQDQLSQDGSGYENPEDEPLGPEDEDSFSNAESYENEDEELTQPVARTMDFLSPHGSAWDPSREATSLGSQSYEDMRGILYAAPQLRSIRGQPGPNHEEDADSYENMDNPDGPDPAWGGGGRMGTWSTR

The substance “CD19.28.ζ-CAR (CD19-specific chimeric antigen receptor with FMC63 scFv, CD28 hinge, transmembrane and intracellular sequences and CD3ζ intracellular domain) (from UniProt P10747 114-220; P20963 52-164)” returned a CD19+ cell population (B cells) remaining 24 hours after gene targeting of 2.53%.
